What was measured:
Test in all cases: cell-based or functional assay
[1] = biological target: TrkA Y490/785F (UniProt P04629)
[2] = biological target: TrkA Y490F (UniProt P04629)
[3] = biological target: TrkA Y785F (UniProt P04629)
[4] = biological target: wild-type TrkA, baculovirus-expressed, activated (autophosphorylated) (UniProt P04629)

B1: SHP-2 (enzyme, UniProt Q06124 2-593, looked up, species assumed)
Tyrosine-protein phosphatase non-receptor type 11: TSRRWFHPNITGVEAENLLLTRGVDGSFLARPSKSNPGDFTLSVRRNGAVTHIKIQNTGDYYDLYGGEKFATLAELVQYYMEHHGQLKEKNGDVIELKYPLNCADPTSERWFHGHLSGKEAEKLLTEKGKHGSFLVRESQSHPGDFVLSVRTGDDKGESNDGKSKVTHVMIRCQELKYDVGGGERFDSLTDLVEHYKKNPMVETLGTVLQLKQPLNTTRINAAEIESRVRELSKLAETTDKVKQGFWEEFETLQQQECKLLYSRKEGQRQENKNKNRYKNILPFDHTRVVLHDGDPNEPVSDYINANIIMPEFETKCNNSKPKKSYIATQGCLQNTVNDFWRMVFQENSRVIVMTTKEVERGKSKCVKYWPDEYALKEYGVMRVRNVKESAAHDYTLRELKLSKVGQGNTERTVWQYHFRTWPDHGVPSDPGGVLDFLEEVHHKQESIMDAGPVVVHCSAGIGRTGTFIVIDILIDIIREKGVDCDIDVPKTIQMVRSQRSGMVQTEAQYRFIYMAVQHYIETLQRRIEEEQKSKRKGHEYTNIKYSLADQTSGDQSPLPPCTPTPPCAEMREDSARVYENVGLMQQQKSFR
2 fold: Trk tyrosine dephosphorylation on co-expression in insect cells (anti-pTyr blot) [1] | Trk tyrosine dephosphorylation on co-expression in insect cells (anti-pTyr blot) [2] | Trk tyrosine dephosphorylation on co-expression in insect cells (anti-pTyr blot) [3] | Trk tyrosine dephosphorylation on co-expression in insect cells (anti-pTyr blot) [4] | dephosphorylation of Trk at Y674/Y675 (phospho-specific anti-Trk antibodies, co-expression in insect cells) [4]

Source: US20020110800A1, “Use of SHP-1 and SHP-2 to detect compounds involved in neuronal survival” (McGill University, priority 1997, published 2002)
